# IntAct's records for PubMed 21847091
# B1: Abscisic acid receptor PYR1 (Arabidopsis thaliana (Mouse-ear cress)), O49686 (parent)
# chain: MPSELTPEERSELKNSIAEFHTYQLDPGSCSSLHAQRIHAPPELVWSIVRRFDKPQTYKHFIKSCSVEQNFEMRVGCTRDVIVISGLPANTSTERLDILDDERRVTGFSIIGGEHRLTNYKSVTTVHRFEKENRIWTVVLESYVVDMPEGNSEDDTRMFADTVVKLNLQKLATVAEAMARNSGDGSGSQVT
# Variants of: B1
# Conditions: with HAB1, Q9CAJ0
# HAB1, Q9CAJ0, sequence (Q9CAJ0 whole entry): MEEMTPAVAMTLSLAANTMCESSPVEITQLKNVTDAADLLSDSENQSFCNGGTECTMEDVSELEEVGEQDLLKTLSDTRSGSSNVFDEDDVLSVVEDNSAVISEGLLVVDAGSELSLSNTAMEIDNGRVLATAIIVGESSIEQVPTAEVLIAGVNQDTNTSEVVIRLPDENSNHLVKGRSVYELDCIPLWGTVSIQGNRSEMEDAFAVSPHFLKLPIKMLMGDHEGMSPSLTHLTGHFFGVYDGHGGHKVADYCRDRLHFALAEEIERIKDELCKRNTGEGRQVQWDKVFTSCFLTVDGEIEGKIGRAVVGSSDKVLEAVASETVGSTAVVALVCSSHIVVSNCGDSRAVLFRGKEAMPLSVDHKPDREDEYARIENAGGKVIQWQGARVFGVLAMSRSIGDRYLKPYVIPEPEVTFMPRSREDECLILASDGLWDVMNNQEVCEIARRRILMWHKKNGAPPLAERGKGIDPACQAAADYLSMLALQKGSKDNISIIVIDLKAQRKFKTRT
row,effect of a mutation on the interaction,Variant
1,increasing interaction,H60P
